{
  "source": "patent US6753317",
  "key": {"[1]": {"target": "µ-opioid receptor (rat brain synaptosomal preparation) (rat) (UniProt P33535)", "sequence (P33535 whole entry)": "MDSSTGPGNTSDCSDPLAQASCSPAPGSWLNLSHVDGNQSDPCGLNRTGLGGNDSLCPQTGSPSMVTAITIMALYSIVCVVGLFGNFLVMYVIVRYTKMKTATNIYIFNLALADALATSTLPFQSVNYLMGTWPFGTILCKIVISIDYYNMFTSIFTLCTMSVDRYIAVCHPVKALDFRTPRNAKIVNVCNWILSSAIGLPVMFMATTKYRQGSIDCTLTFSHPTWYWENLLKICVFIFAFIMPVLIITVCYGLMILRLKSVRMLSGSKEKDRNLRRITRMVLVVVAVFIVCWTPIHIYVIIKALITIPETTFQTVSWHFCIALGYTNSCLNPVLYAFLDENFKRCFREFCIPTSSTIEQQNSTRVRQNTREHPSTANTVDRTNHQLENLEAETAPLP", "test": "radioligand competition vs [^3H]DAGO, rat brain synaptosomes"}, "[2]": {"target": "δ-opioid receptor (rat brain synaptosomal preparation) (rat) (UniProt P33533)", "sequence (P33533 whole entry, stated change not applied)": "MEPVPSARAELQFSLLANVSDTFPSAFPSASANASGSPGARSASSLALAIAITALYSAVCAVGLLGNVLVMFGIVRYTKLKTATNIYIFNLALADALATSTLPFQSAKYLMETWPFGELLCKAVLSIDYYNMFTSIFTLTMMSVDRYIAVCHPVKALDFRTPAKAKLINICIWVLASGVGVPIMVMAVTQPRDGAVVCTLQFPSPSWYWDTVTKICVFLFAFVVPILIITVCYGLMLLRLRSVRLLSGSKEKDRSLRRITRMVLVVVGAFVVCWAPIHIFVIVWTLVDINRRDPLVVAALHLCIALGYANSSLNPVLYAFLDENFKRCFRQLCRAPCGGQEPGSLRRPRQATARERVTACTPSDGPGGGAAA", "test": "radioligand competition vs [^3H]DPDPE, rat brain synaptosomes"}, "[3]": {"target": "δ-opioid receptor (rat brain synaptosomal preparation) (rat) (UniProt P33533)", "test": "radioligand competition vs [^3H]N,N(CH3)2-Dmt-Tic-OH, rat brain synaptosomes"}, "[4]": {"target": "δ-opioid receptor of the mouse vas deferens (MVD) (mouse) (UniProt P32300)", "sequence (P32300 whole entry, stated change not applied)": "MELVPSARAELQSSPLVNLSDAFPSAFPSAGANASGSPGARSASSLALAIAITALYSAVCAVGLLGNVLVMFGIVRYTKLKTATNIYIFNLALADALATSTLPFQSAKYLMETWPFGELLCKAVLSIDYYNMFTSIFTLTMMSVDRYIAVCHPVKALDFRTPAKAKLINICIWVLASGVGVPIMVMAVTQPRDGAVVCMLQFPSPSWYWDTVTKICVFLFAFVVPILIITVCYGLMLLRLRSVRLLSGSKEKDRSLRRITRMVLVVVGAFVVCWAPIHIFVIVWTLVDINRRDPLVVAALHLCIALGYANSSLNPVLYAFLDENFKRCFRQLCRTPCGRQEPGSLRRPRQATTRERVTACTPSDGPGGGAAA", "test": "cell-based or functional assay"}},
  "note": "pKi: −log10 of the molar value. Non-standard residues stand in square brackets, D forms with d. *: point of attachment. Dmt = Cc1cc(O)cc(C)c1C[C@H](N)C(=O)O; Tic = O=C(O)[C@@H]1Cc2ccccc2CN1; NHNH2 = NN*",
  "data": [
    {"substance": "H-(R,S)Dmt-Tic-OH (peptide)", "values": [
      {"measurement": "pKi", "setting": "[1]", "value": 5.94},
      {"measurement": "pKi", "setting": "[2]", "value": 9.34},
      {"measurement": "pKi", "setting": "[3]", "value": 9.10}
    ]},
    {"substance": "H-Dmt-D-Tic-NH-1-adamantane (peptide)", "values": [
      {"measurement": "pKi", "setting": "[1]", "value": 9.59},
      {"measurement": "pKi", "setting": "[2]", "value": 7.61},
      {"measurement": "pKi", "setting": "[3]", "value": 7.15}
    ]},
    {"substance": "H-Dmt-Tic-Ala-NH2 (peptide)", "values": [
      {"measurement": "pKi", "setting": "[1]", "value": 7.33},
      {"measurement": "pKi", "setting": "[2]", "value": 9.62},
      {"measurement": "pKi", "setting": "[3]", "value": 9.16}
    ]},
    {"substance": "H-Dmt-Tic-Ala-NH-1-adamantane (peptide)", "values": [
      {"measurement": "pKi", "setting": "[1]", "value": 8.60},
      {"measurement": "pKi", "setting": "[2]", "value": 10.14},
      {"measurement": "pKi", "setting": "[3]", "value": 10.40}
    ]},
    {"substance": "H-Dmt-Tic-Ala-NH-tBu (peptide)", "values": [
      {"measurement": "pKi", "setting": "[1]", "value": 8.39},
      {"measurement": "pKi", "setting": "[2]", "value": 10.18},
      {"measurement": "pKi", "setting": "[3]", "value": 10.10}
    ]},
    {"substance": "H-Dmt-Tic-Ala-NHMe (peptide)", "values": [
      {"measurement": "pKi", "setting": "[1]", "value": 8.24},
      {"measurement": "pKi", "setting": "[2]", "value": 10.24},
      {"measurement": "pKi", "setting": "[3]", "value": 9.92}
    ]},
    {"substance": "H-Dmt-Tic-Ala-OH (peptide)", "values": [
      {"measurement": "pKi", "setting": "[1]", "value": 6.09},
      {"measurement": "pKi", "setting": "[2]", "value": 9.54},
      {"measurement": "pKi", "setting": "[3]", "value": 9.54}
    ]},
    {"substance": "H-Dmt-Tic-Ala-OMe (peptide)", "values": [
      {"measurement": "pKi", "setting": "[1]", "value": 7.95},
      {"measurement": "pKi", "setting": "[2]", "value": 9.64},
      {"measurement": "pKi", "setting": "[3]", "value": 9.85}
    ]},
    {"substance": "H-Dmt-Tic-NH-1-adamantane (peptide)", "values": [
      {"measurement": "pKi", "setting": "[1]", "value": 9.12},
      {"measurement": "pKi", "setting": "[2]", "value": 9.59},
      {"measurement": "pKi", "setting": "[3]", "value": 9.00}
    ]},
    {"substance": "H-Dmt-Tic-NH-tBu (peptide)", "values": [
      {"measurement": "pKi", "setting": "[1]", "value": 8.22},
      {"measurement": "pKi", "setting": "[2]", "value": 9.37},
      {"measurement": "pKi", "setting": "[3]", "value": 9.03}
    ]},
    {"substance": "H-Dmt-Tic-NH-tetrazole-5-yl (peptide)", "values": [
      {"measurement": "pKi", "setting": "[1]", "value": 7.43},
      {"measurement": "pKi", "setting": "[2]", "value": 9.15},
      {"measurement": "pKi", "setting": "[3]", "value": 8.01}
    ]},
    {"substance": "H-Dmt-βTic-OH (peptide)", "values": [
      {"measurement": "pKi", "setting": "[1]", "value": 6.38},
      {"measurement": "pKi", "setting": "[2]", "value": 9.07},
      {"measurement": "pKi", "setting": "[3]", "value": 9.15}
    ]},
    {"substance": "H-[Dmt]-[Tic]-NH2", "values": [
      {"measurement": "pKi", "setting": "[2]", "value": 8.91},
      {"measurement": "pKi", "setting": "[3]", "value": 8.67}
    ]},
    {"substance": "H-[Dmt]-[Tic]-NHMe", "values": [
      {"measurement": "pKi", "setting": "[1]", "value": 7.07},
      {"measurement": "pKi", "setting": "[2]", "value": 9.33},
      {"measurement": "pKi", "setting": "[3]", "value": 8.91}
    ]},
    {"substance": "H-[Dmt]-[Tic]-NHNH2", "values": [
      {"measurement": "pKi", "setting": "[1]", "value": 7.07},
      {"measurement": "pKi", "setting": "[2]", "value": 9.00},
      {"measurement": "pKi", "setting": "[3]", "value": 7.38}
    ]},
    {"substance": "H-[Dmt]-[Tic]-OH", "values": [
      {"measurement": "pKi", "setting": "[1]", "value": 5.48}
    ]},
    {"substance": "H-[Dmt]-[Tic]-OMe", "values": [
      {"measurement": "pKi", "setting": "[1]", "value": 6.37},
      {"measurement": "pKi", "setting": "[2]", "value": 8.02},
      {"measurement": "pKi", "setting": "[3]", "value": 6.30}
    ]},
    {"substance": "H-αDmt-Tic-OH (peptide)", "values": [
      {"measurement": "pKi", "setting": "[1]", "value": 5.76},
      {"measurement": "pKi", "setting": "[2]", "value": 7.95},
      {"measurement": "pKi", "setting": "[3]", "value": 6.32}
    ]},
    {"substance": "N,N(Et)2-DMT-Tic-OH (peptide)", "values": [
      {"measurement": "pKi", "setting": "[2]", "value": 9.04}
    ]},
    {"substance": "N,N(Me)2-Dmt-D-Tic-NH-1-adamantane (peptide)", "values": [
      {"measurement": "pKi", "setting": "[1]", "value": 7.30},
      {"measurement": "pKi", "setting": "[2]", "value": 6.85},
      {"measurement": "pKi", "setting": "[3]", "value": 6.92}
    ]},
    {"substance": "N,N(Me)2-Dmt-Tic-NH-1-adamantane (peptide)", "values": [
      {"measurement": "pKi", "setting": "[1]", "value": 8.95},
      {"measurement": "fold rise of µ affinity relative to N,N(Me)2-Dmt-Tic-OH", "setting": "[1]", "value": 2200, "unit": "fold"},
      {"measurement": "pKi", "setting": "[2]", "value": 9.80},
      {"measurement": "pKi", "setting": "[3]", "value": 9.92}
    ]},
    {"substance": "N,N(Me)2-Dmt-Tic-NH-tBu (peptide)", "values": [
      {"measurement": "pKi", "setting": "[1]", "value": 6.65},
      {"measurement": "pKi", "setting": "[2]", "value": 9.21},
      {"measurement": "pKi", "setting": "[3]", "value": 9.96}
    ]},
    {"substance": "N,N(Me)2-Dmt-Tic-NHMe (peptide)", "values": [
      {"measurement": "pKi", "setting": "[1]", "value": 6.44},
      {"measurement": "pKi", "setting": "[2]", "value": 9.27},
      {"measurement": "pKi", "setting": "[3]", "value": 9.55}
    ]},
    {"substance": "N,N(Me)2-Dmt-Tic-OH (peptide)", "values": [
      {"measurement": "pKi", "setting": "[1]", "value": 5.61},
      {"measurement": "pKi", "setting": "[2]", "value": 9.92},
      {"measurement": "pKi", "setting": "[3]", "value": 10.15}
    ]},
    {"substance": "[des-NH2-α-piperidine-1-yl]-Dmt-Tic-OH (peptide)", "values": [
      {"measurement": "pKi", "setting": "[1]", "value": 5.69},
      {"measurement": "pKi", "setting": "[2]", "value": 8.93},
      {"measurement": "pKi", "setting": "[3]", "value": 9.13}
    ]},
    {"substance": "[des-NH2-α-pyrrole-1-yl]-Dmt-Tic-OH (peptide)", "values": [
      {"measurement": "pKi", "setting": "[1]", "value": 5.25},
      {"measurement": "pKi", "setting": "[2]", "value": 7.78},
      {"measurement": "pKi", "setting": "[3]", "value": 8.00}
    ]},
    {"substance": "[des-NH2-α-pyrrolidine-1-yl]-Dmt-Tic-OH (peptide)", "values": [
      {"measurement": "pKi", "setting": "[1]", "value": 6.09},
      {"measurement": "pKi", "setting": "[2]", "value": 8.79},
      {"measurement": "pKi", "setting": "[3]", "value": 8.85}
    ]},
    {"substance": "cyclo (DMT-Tic) (peptide)", "values": [
      {"measurement": "MVD pA2", "setting": "[4]", "value": 5.43},
      {"measurement": "pKi", "setting": "[2]", "value": 8.02}
    ]}
  ]
}
